In article PMC3392941 (The Journal of Cell Biology, 2012):

Biological target: T1, Recombinant Myo2 CBD, Myo2(1,131–1,574) (S. cerevisiae, UniProt P19524 1131-1574)
T1 sequence: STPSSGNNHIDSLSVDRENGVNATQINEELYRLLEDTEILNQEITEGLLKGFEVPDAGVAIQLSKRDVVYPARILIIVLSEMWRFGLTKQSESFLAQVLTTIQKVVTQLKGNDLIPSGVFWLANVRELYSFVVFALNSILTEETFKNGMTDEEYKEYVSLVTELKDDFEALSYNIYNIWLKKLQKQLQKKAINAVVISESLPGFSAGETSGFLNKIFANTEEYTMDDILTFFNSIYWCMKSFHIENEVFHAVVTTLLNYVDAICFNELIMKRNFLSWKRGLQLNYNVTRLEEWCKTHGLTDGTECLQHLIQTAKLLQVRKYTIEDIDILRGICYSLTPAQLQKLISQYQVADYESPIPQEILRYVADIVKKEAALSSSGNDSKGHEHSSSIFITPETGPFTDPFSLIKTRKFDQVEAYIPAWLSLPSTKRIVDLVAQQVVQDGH
Experiment: SEC

Binder: PNEAPNDSPQSQSTRSSLGSFQPRPLKIIERQRLCMVTPSKPPKKS (domain or fragment) [MBP-Vac17(112–157)]
- binding result: binds
